Patent publication US20030143656A1

What was measured:
[1] = target: GST-PDK1 I119A (human), O15530; experiment: cell-based or functional assay
[2] = target: 412E-p70 S6K-T2 (His-tagged, insect cells) (human) (UniProt P23443); experiment: SPR, His-PDK1 injected over 412E-p70 S6K-T2 amine-coupled to a CM5 chip, steady state
Sequence of 412E-p70 S6K-T2 (His-tagged, insect cells) (human) (P23443 other isoform, or with tags, fused parts or gaps): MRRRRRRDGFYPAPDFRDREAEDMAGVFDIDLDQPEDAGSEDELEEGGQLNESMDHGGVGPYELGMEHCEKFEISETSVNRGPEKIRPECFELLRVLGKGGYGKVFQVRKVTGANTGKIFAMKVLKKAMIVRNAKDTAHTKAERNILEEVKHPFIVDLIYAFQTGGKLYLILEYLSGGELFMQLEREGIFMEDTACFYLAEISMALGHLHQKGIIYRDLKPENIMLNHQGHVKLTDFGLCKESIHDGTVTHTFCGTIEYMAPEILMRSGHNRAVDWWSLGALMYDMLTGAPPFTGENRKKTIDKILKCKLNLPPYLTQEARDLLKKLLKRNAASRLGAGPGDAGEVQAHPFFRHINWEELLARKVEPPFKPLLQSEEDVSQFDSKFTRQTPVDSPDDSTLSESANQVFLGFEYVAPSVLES

| Binder | inhibition by 2 µM PIFtide of the activation of S6K1-T2[T412E] and SGK1[T422D] by the PDK1 mutant [1] | inhibition by 35 µM PIFtide of the activation of S6K1-T2[T412E] and SGK1[T422D] by the PDK1 mutant [1] | stimulation of the PDK1 mutant towards T308tide by PIF [1] | Kd [2] |
| --- | --- | --- | --- | --- |
| REPRILSEEEQEMFRDFDYIADWC [PIFtide] | 50% | > 95% | 2 fold | – |
| His-PDK1 (enzyme, human, UniProt O15530 52-556, looked up, not shown: small tags and cut ends) DGTAAEPRPGAGSLQHAQPPPQPRKKRPEDFKFGKILGEGSFSTVVLARELATSREYAIKILEKRHIIKENKVPYVTRERDVMSRLDHPFFVKLYFTFQDDEKLYFGLSYAKNGELLKYIRKIGSFDETCTRFYTAEIVSALEYLHGKGIIHRDLKPENILLNEDMHIQITDFGTAKVLSPESKQARANSFVGTAQYVSPELLTEKSACKSSDLWALGCIIYQLVAGLPPFRAGNEYLIFQKIIKLEYDFPEKFFPKARDLVEKLLVLDATKRLGCEEMEGYGPLKAHPFFESVTWENLHQQTPPKLTAYLPAMSEDDEDCYGNYDNLLSQFGCMQVSSSSSSHSLSASDTGLPQRSGSNIEQYIHDLDSNSFELDLQFSEDEKRLLLEKQAGGNPWHQFVENNLILKMGPVDKRKGLFARRRQLLLTEGPHLYYVDPVNKVLKGEIPWSQELRPEAKNFKTFFVHTPNRTYYLMDPSGNAHKWCRKIQEVWRQRYQSHPDAAVQ | – | – | – | 8 µM |
